Measured values reported in patent US7888090B2, “Mutants of O6-alkylguanine-DNA alkyltransferase” (Ecole Polytechnique Federale de Lausanne, priority 2004, dated 2011).

What was measured:
[1] = Stability after reaction with BG-FL; assay type: physicochemical
Procedure: Stability before reaction is determined for the mutant AGT or for a mutant AGT fusion protein by incubating purified samples in buffered aqueous solution for up to two weeks at 4° C. and up to six months at −20° C. At several time points, aliquots are taken and concentration of reactive AGT is estimated as described by Juillerat et al., Chem Biol 10:313-317, 2003. Stability for wild type AGT and the AGT mutant after reaction with a labelled substrate and after subsequent separation from unreacted substrate is determined by quantifying the concentration of the label in the soluble fraction over up to two weeks at 4° C. and up to three months at −20° C.
Stability after reaction: The vector pBAD/H is A (Invitrogen) is modified by cloning synthetic oligonucleotides (SEQ ID NO:29 and SEQ ID NO:30) between the NcoI and HindIII sites to include a 12×His-tag and SbfI and AscI cloning sites. The gene of AGTM is amplified with primers SEQ ID NO:31 and SEQ ID NO:32 and cloned between the SbfI/AscI sites into this vector. Wild type AGT and mutant AGT (Lys125Ala, Ala127Thr, Arg128Ala, Asn157Gly, Ser159Glu) are amplified with primers SEQ ID NO:31 and SEQ ID NO:33 and cloned into this vector. Protein expression is carried out in E. coli strain Top 10. An exponentially growing culture is induced with 0.2% arabinose, and the expression is carried out for 16 hours at 28° C. The cells are lysed by adding buffer to 10 ml/g containing 0.5 M NaCl, 80 mM imidazole, 1% Triton, 250 µM PMSF, 1 mM […]-mercaptoethanol, 5 mg/ml lysozyme, 20 µg/ml DNase and stirring for 45 min. […]
The AGT proteins at 10 µM) are quantitatively reacted with fluorescein-modified O^6-benzyl-guanine (substance 5 of Juillerat et al, Chem Biol 10:313-317, 2003, BG-FL, 20 µM) and purified over a size exclusion column (Econopac 10 DG, Bio-Rad) and incubated for 7 days. […] The fluorescence of the supernatant is measured with a Victor2 fluorescence plate reader (Perkin Elmer, excitation/emission at 485/535 nm).

[2] = Reaction of two AGT variants in one sample with CPTG and BG-Bt; assay type: biochemical; conditions: CPTG and BG-Bt both at 5 μM, 30 minutes
Procedure: FIG. 2: Western blot of the reaction of wild type hAGT (GST-hAGT fusion protein) and AGTM with the two substrates N^9-cyclopentyl-O^6-bromophenyl-guanine (CPTG) and biotinylated O^6-benzylguanine (BG-Bt, substance 3a of Juillerat et al. 2003) as described in Example 7. BG-Bt is present in all samples at 5 μM. Detection with neutravidin-peroxidase conjugate and luminescent peroxidase substrate detecting any AGT reacted with BG-Bt. Even under simultaneous incubation with identical concentrations of CPTG and BG-Bt only about 5% of GST-hAGT reacts with substrate BG-Bt.
Within the experiment two tags with different size for the two AGT proteins are used: The His-tagged AGTM (˜20 kDa) and GST-hAGT (cloned and prepared as described in Example 1, but starting with the wild type hAGT gene, ˜48 kDa) are diluted to 0.2 μM and 1.2 μM final concentration, respectively, in reaction buffer containing 50 mM HEPES, 1 mM DTT, 200 mg/mL BSA (pH 7.3). The sample is incubated with a mixture of substrates N^9-cyclopentyl-O^6-bromophenyl-guanine (CPTG; 0, 5 and 10 μM final concentrations) and biotinylated O^6-benzylguanine (BG-Bt, 5 μM final concentration) for 30 minutes. The reaction is quenched by addition of SDS-Laemmli buffer and subjected to Western blotting analysis (Example 1). As the two AGT variants have different masses, the two proteins can be separated on an acrylamide gel and analyzed independently. […] At the same concentration (both substrates at 5 μM final concentration), 95% of GST-hAGT reacts with CPTG, versus only 5% of His-tagged AGTM.

[3] = system: salmon sperm DNA; assay: DNA binding as inhibition by DNA of the reaction with BG-Cy3; conditions: salmon sperm DNA 25 µg/ml
Procedure: The interaction with DNA is e.g. quantified by assessing the amount of copurified DNA from E. coli extracts under conditions of low salt and absence of DNase. This is compared between parallel purifications of fusion proteins (e.g. fusions to GST) of wild type (human) and mutant AGT by spectroscopic methods (ratio of absorbance at 260 and 280 nm). Alternatively the interaction of AGT with DNA is measured as the inhibition of AGT reactivity with BG-Cy3 (O^6-(4-aminomethyl-benzyl)-guanine coupled to Cy3) as substrate in the presence of DNA. This approach takes advantage of a marked increase of fluorescence of the Cy3 fluorophore upon reaction of BG-Cy3 with AGT. The reaction kinetics of AGT with a Cy3-labeled benzylguanine derivative is followed by fluorescence intensity measurements over several hours at various concentrations of salmon sperm DNA.
DNA binding: DNA binding is measured as inhibition by DNA of the reaction of AGT mutants with BG derivatives. The reaction rate of AGT mutants in a reaction mixture containing salmon sperm DNA (25 µg/ml) instead of oligonucleotide is measured with the BG-Cy3 assay. The reaction rate is determined by fitting the obtained data to a monoexponential increase to maximum.

B1: AGTM: AGT mutant Cys62Ala, Gln115Ser, Gln116His, Lys125Ala, Ala127Thr, Arg128Ala, Gly131Lys, Gly132Thr, Met134Leu, Arg135Ser, Cys150Asn, Ser151Ile, Ser152Asn, Asn157Gly, Ser159Glu, truncated after … (protein, UniProt P16455 1-207, looked up, variant C62A Q115S Q116H K125A A127T R128A G131K G132T M134L R135S C150N S151I S152N N157G S159E del183-207)
Methylated-DNA--protein-cystei …: MDKDCEMKRTTLDSPLGKLELSGCEQGLHEIKLLGKGTSAADAVEVPAPAAVLGGPEPLMQATAWLNAYFHQPEAIEEFPVPALHHPVFQQESFTRQVLWKLLKVVKFGEVISYSHLAALAGNPAATAAVKTALSGNPVPILIPCHRVVNINGAVGGYEGGLAVKEWLLAHEGHRLGKPGLG
modifications: His tag
In the case of B1, the “time labeled protein remains stable in solution” value [1] is reported as “over 7 days”, the “fraction of protein reacting with CPTG” value [2] is reported as 5% and the “reduction of reaction rate to BG-Cy3 in presence of DNA” value [3] is reported as “unchanged”.
